# In article PMC10209884, “Hypochlorite-induced oxidation promotes aggregation and reduces toxicity of amyloid beta 1-42” (Redox Biology, 2023):
# Key:
# cortical neurons = settings: in vitro, cortical neurons from rodents; cited from earlier work
# From the text: The exact concentration of hypochlorite generated in cerebral spinal fluid is not known, but myeloperoxidase has been measured in human cerebrospinal fluid (CSF) from cognitively normal donors at 101 ± 43 pg/ml with corresponding activity of 0.0292 ± 0.001 mU [34]. Although myeloperoxidase activity is much less in CSF than in human serum, human serum also contains high levels of albumin which acts as an antioxidant. […] Considering that 3-chl ...
# [1] = Size exclusion chromatography of Aβ1-42 assemblies; type: physicochemical; settings: 66.67 μM Aβ1-42, PBS, 1 h ambient room temperature
# From the text: The absorbance at 280 nm was used to monitor the elution of the peptide.
# [2] = Filter trap assay (insoluble Aβ1-42 retained on cellulose acetate membrane); type: physicochemical; settings: co-incubation with 1.6-fold molar excess of NaOCl vs Aβ1-42 in PBS alone; Aβ1-42 55 μM, PBS pH 7.4, overnight, ambient room temperature; 0.22 μm cellulose acetate membrane, WO2 blot densitometry; mean of n = 3
# Protocol: (§1) When incubations differed from these standard conditions for a specific experiment, the details are provided in the relevant figure legend and in the relevant section of the Methods section.
# Following treatment with NaOCl, Aβ1-42 samples were subjected to filter trap assay in order to estimate the amount of peptide present in the insoluble fraction. […] Following extraction of the soluble fraction using a vacuum, the wells of the apparatus were washed three times using 0.01% (v/v) Triton-X in PBS. […] Blots were imaged after exposure to enhanced chemiluminescence reagent (Bio-Rad, NSW, AUS) using a ChemiDoc MP Imaging system (Bio-Rad, NSW, AUS).
# SH-SY5Y cells = experiment: Incucyte endocytosis assay (colocalization with Lysotracker Red); type: cell-based, human; settings: Aβ1-42-Hilyte-488 (50 μM) pre-treated with 160 μM NaOCl, compared to copper/H2O2 treatment, Ham's F12, 4 °C, 4 days; 1 μM on cells, 1 h; n = 27 areas from three wells
# Protocol: Images of the cells were taken after 1 h using an Incucyte SX5 (Sartorius).
# Aβ1-42-Hilyte-488 (50 μM) was incubated with 160 μM NaOCl or […]/H2O2 in Ham's/F12 or Ham's/F12 alone for 4 days at 4 °C. SH-SY5Y cells seeded at 15,000 cells/well in a 96-well plate were then treated with 1 μM of Aβ1-42-Hilyte-488 in NB27 containing 100 nM Lysotracker Red DND-99. Images of cells (9 images per well) were taken after 1 h using an Incucyte SX5 (Sartorius). Colocalization of Aβ1-42-Hilyte-488 with Lysotracker Red was calculated using Incucyte live cell analysis software.
# [3] = Western blot analysis of SDS-resistant Aβ1-42 assemblies; type: physicochemical; settings: higher concentrations of NaOCl, PBS overnight at ambient room temperature; 10-20% tris-tricine gel, WO2 Western blot
# Protocol: as §1
# Gels were stained using Instant Blue stain (Abcam; Melbourne, VIC, AUS) and imaged with Geldoc Go imager (Bio-Rad, NSW, AUS).
# Blots were imaged after exposure to enhanced chemiluminescence reagent (Bio-Rad, NSW, AUS) using a ChemiDoc MP Imaging system (Bio-Rad, NSW, AUS).
# [4] = BisANS assay of surface exposed hydrophobicity; type: physicochemical; settings: NaOCl at sub-stoichiometric concentration vs Aβ1-42 in PBS alone, overnight, ambient room temperature, 10 μM Aβ1-42, 20 μM bisANS, 5 min, 25 °C, Ex 360 nm, Em 502 nm, mean of n = 10
# Protocol: as §1
# Aβ1-42 was treated with NaOCl and the solutions supplemented with excess L-Met. […] BisANS fluorescence (Excitation 360 nm, Emission 502 nm) was then measured using a Clariostar platereader (BMG Labtech). The data shown is the average BisANS fluorescence of n = 10 samples and is adjusted for background fluorescence.
# [5] = Transmission electron microscopy of ThT assay end-point samples; type: physicochemical; settings: end-point samples of ThT assay after NaOCl pre-treatment; 2% uranyl acetate stain
# Protocol: Samples from the ThT kinetics assay (endpoints) were prepared for TEM on 400-mesh carbon film coated copper grids (EM resolutions Ltd.) and stained with 2% (w/v) uranyl acetate. Grids were imaged with a FEI Tecnai G2 transmission electron microscope (Cambridge Advanced Imaging Centre, University of Cambridge) and subsequent images analyzed with SIS Megaview II Image Capture system (Olympus).
# [6] = Electrospray mass spectrometry of Aβ1-42 oxidation by NaOCl; type: physicochemical; settings: 5-fold molar excess of NaOCl; 31 μM Aβ1-42, PBS, 1 h on ice/4 °C, quenched with 20 mM L-Met; electrospray MS
# Protocol: Aβ1–42 (31 μM) was incubated with NaOCl (0–360 μM) in PBS on ice for 1 h and the reaction was quenched using L-Met (20 mM). Electrospray mass spectrometry was performed on a Xevo G2 mass spectrometer and data was analyzed using MassLynx software (Waters UK, Elstree, Hertfordshire, UK) at the Department of Chemistry, University of Cambridge.
# [7] = test system: SH-SY5Y neuroblastoma cells; experiment: Incucyte Cytotox Green cell death assay; type: cell-based, human; settings: Aβ1-42 (100 μM) pre-incubated with 80 μM NaOCl in Ham's/F12 2 h ambient room temperature; 15 μM Aβ1-42 on cells; vs Aβ1-42 without NaOCl
# Protocol: Cell viability was also measured in real-time using Cytotox Green reagent (Essen Bioscience) in an Incucyte SX5 (Sartorius, South VIC, AUS), according to the manufacturer's instructions.
# [8] = Thioflavin T (ThT) assay of amyloid fibril formation; type: physicochemical
# Protocol: Aβ1–42 (4–5 μM) was incubated at 28 °C with shaking in PBS ± NaOCl containing ThT (20–25 μM). The ThT fluorescence of the samples was continuously monitored using a Clariostar platereader with excitation and emission wavelengths of 440 nm and 480 nm (slit widths of 10 nm), respectively. The data shown is the mean fluorescence of triplicate samples and is adjusted for the background fluorescence. In additional experiments, Aβ1–42 was pre-treated with NaOCl in PBS for 1 h at ambient room temperature before being supplemented with excess L-Met (20 mM). A control sample of Aβ1–42 was incubated in the absence of NaOCl as described previously and supplemented with L-Met. Aβ1–42 preparations were then subjected to a ThT assay incubated at 37 °C under quiescent conditions, and monitored as described above. Half-time (t1/2) values are the time to reach half of the maximum ThT fluorescence, calculated after normalising the aggregation data for 3 independent assays.
compound,measurement,setting,value
"[Na+].[O-]Cl [hypochlorite, sodium hypochlorite]",hypochlorite concentration at which neurons are resistant to cell death,cortical neurons,up to 200 μM
NaOCl-treated Aβ1-42: Aβ1-42 pre-incubated with sodium hypochlorite; singly oxidised species in heterogeneous assemblies,SEC approximate molecular masses of predominate peaks,"[1]; 2-fold molar excess of NaOCl (133.33 μM), Superdex 75 Increase 3.2/300, A280, ≥100 kDa = exclusion limit",≥ 100 kDa
same,reduction in insoluble Aβ1-42 detected by filter trap assay,[2],95%
same,internalisation to lysosomes (colocalization area of Aβ1-42-Hilyte-488 and Lysotracker Red),SH-SY5Y cells,preferentially internalise
same,size of higher order SDS-resistant Aβ1-42 assemblies,[3],~150 kDa
amyloid beta peptide 1–42 [Aβ1-42],BisANS fluorescence (surface exposed hydrophobicity),[4],substantial decrease
same,formation of amyloid fibrils by TEM,[5],markedly reduced
same,SEC apparent size of the majority of the peptide (monomer),"[1]; no NaOCl, Superdex 75 Increase 3.2/300, 0.05 ml/min, A280",4.5 kDa
same,"fraction of the peptide oxidised (singly oxidised species, 4530 Da)",[6],around half
same,cell death after 72 h (green object count),[7],approximately halved
same,amyloid-associated ThT fluorescence over a 7-hr time course,"[8]; co-incubation with 2-fold molar excess of NaOCl, 5 μM Aβ1-42, 25 μM ThT, PBS, 28 °C, orbital shaking, mean of n = 4",significantly suppress
same,increase in amyloid-associated ThT fluorescence (half-time t1/2),"[8]; pre-treatment with 1.6-fold molar excess of NaOCl in PBS 1 h RT, quenched with excess L-Met, 4 μM Aβ1-42, 25 μM ThT, 37 °C, mean of n = 3",significantly delayed
same,amyloid-associated ThT fluorescence over the 15 h of the assay,"[8]; pre-treatment with 3.2-fold molar excess of NaOCl in PBS 1 h RT, quenched with excess L-Met, 4 μM Aβ1-42, 25 μM ThT, 37 °C, mean of n = 3",prevented
